± gives the uncertainty stated by the source.
assay: abundance fitness (aPCA) (normalised: wild type 0, dead -1); higher = more abundant; growth selection in yeast, the domain comes from the species named; settings: Homo sapiens

“E3 ubiquitin-protein ligase NEDD4-like R223E, Q96PU5” and “E3 ubiquitin-protein ligase NEDD4-like R223F, Q96PU5” are within error of each other in abundance fitness: -0.378 ± 0.087 for the first, -0.461 ± 0.12 for the second.

First: E3 ubiquitin-protein ligase NEDD4-like R223G, Q96PU5
Second: E3 ubiquitin-protein ligase NEDD4-like R223H, Q96PU5
The abundance fitness of the first is lower: -0.696 ± 0.068 for the first, -0.18 ± 0.13 for the second.

Compared with “E3 ubiquitin-protein ligase NEDD4-like R223K, Q96PU5”, “E3 ubiquitin-protein ligase NEDD4-like R223L, Q96PU5” is lower in abundance fitness: 0.013 ± 0.1 for the first, -0.206 ± 0.053 for the second.

Compared with “E3 ubiquitin-protein ligase NEDD4-like R223M, Q96PU5”, “E3 ubiquitin-protein ligase NEDD4-like R223N, Q96PU5” is higher in abundance fitness: -0.28 ± 0.067 for the first, -0.082 ± 0.088 for the second.

“E3 ubiquitin-protein ligase NEDD4-like R223P, Q96PU5” and “E3 ubiquitin-protein ligase NEDD4-like R223Q, Q96PU5” are within error of each other in abundance fitness: -0.145 ± 0.11 for the first, -0.153 ± 0.082 for the second.

Going from “E3 ubiquitin-protein ligase NEDD4-like R223S, Q96PU5” to “E3 ubiquitin-protein ligase NEDD4-like R223T, Q96PU5”, the abundance fitness falls from -0.154 ± 0.061 to -0.393 ± 0.094.

“E3 ubiquitin-protein ligase NEDD4-like R223V, Q96PU5” and “E3 ubiquitin-protein ligase NEDD4-like R223Y, Q96PU5” are within error of each other in abundance fitness: -0.249 ± 0.064 for the first, -0.41 ± 0.1 for the second.

“E3 ubiquitin-protein ligase NEDD4-like S184A, Q96PU5” and “E3 ubiquitin-protein ligase NEDD4-like S184C, Q96PU5” are within error of each other in abundance fitness: -0.461 ± 0.096 for the first, -0.457 ± 0.1 for the second.

Going from “E3 ubiquitin-protein ligase NEDD4-like S184E, Q96PU5” to “E3 ubiquitin-protein ligase NEDD4-like S184F, Q96PU5”, the abundance fitness rises from -0.507 ± 0.49 to 0.13 ± 0.084.

“E3 ubiquitin-protein ligase NEDD4-like S184G, Q96PU5” and “E3 ubiquitin-protein ligase NEDD4-like S184H, Q96PU5” are within error of each other in abundance fitness: -0.476 ± 0.11 for the first, -0.437 ± 0.15 for the second.

Compared with “E3 ubiquitin-protein ligase NEDD4-like S184L, Q96PU5”, “E3 ubiquitin-protein ligase NEDD4-like S184M, Q96PU5” is higher in abundance fitness: -0.599 ± 0.14 for the first, 0.884 ± 0.2 for the second.

“E3 ubiquitin-protein ligase NEDD4-like S184N, Q96PU5” and “E3 ubiquitin-protein ligase NEDD4-like S184P, Q96PU5” are within error of each other in abundance fitness: -0.554 ± 0.4 for the first, -0.682 ± 0.26 for the second.

Compared with “E3 ubiquitin-protein ligase NEDD4-like S184R, Q96PU5”, “E3 ubiquitin-protein ligase NEDD4-like S184V, Q96PU5” is higher in abundance fitness: -1.23 ± 0.22 for the first, -0.505 ± 0.13 for the second.

First: E3 ubiquitin-protein ligase NEDD4-like S184W, Q96PU5
Second: E3 ubiquitin-protein ligase NEDD4-like S184Y, Q96PU5
The abundance fitness of the first is lower: -1.33 ± 0.15 for the first, -0.099 ± 0.12 for the second.

First: E3 ubiquitin-protein ligase NEDD4-like S225A, Q96PU5
Second: E3 ubiquitin-protein ligase NEDD4-like S225C, Q96PU5
The abundance fitness of the first is higher: -0.068 ± 0.073 for the first, -0.29 ± 0.099 for the second.

“E3 ubiquitin-protein ligase NEDD4-like S225D, Q96PU5” and “E3 ubiquitin-protein ligase NEDD4-like S225E, Q96PU5” are within error of each other in abundance fitness: -0.006 ± 0.065 for the first, 0.041 ± 0.081 for the second.

First: E3 ubiquitin-protein ligase NEDD4-like S225F, Q96PU5
Second: E3 ubiquitin-protein ligase NEDD4-like S225G, Q96PU5
The abundance fitness of the first is lower: -0.267 ± 0.081 for the first, -0.072 ± 0.068 for the second.

“E3 ubiquitin-protein ligase NEDD4-like S225H, Q96PU5” and “E3 ubiquitin-protein ligase NEDD4-like S225I, Q96PU5” are within error of each other in abundance fitness: -0.264 ± 0.14 for the first, -0.038 ± 0.1 for the second.

“E3 ubiquitin-protein ligase NEDD4-like S225K, Q96PU5” and “E3 ubiquitin-protein ligase NEDD4-like S225L, Q96PU5” are within error of each other in abundance fitness: 0.019 ± 0.095 for the first, -0.095 ± 0.056 for the second.

“E3 ubiquitin-protein ligase NEDD4-like S225M, Q96PU5” and “E3 ubiquitin-protein ligase NEDD4-like S225P, Q96PU5” are within error of each other in abundance fitness: -0.136 ± 0.092 for the first, 0.018 ± 0.083 for the second.

“E3 ubiquitin-protein ligase NEDD4-like S225Q, Q96PU5” and “E3 ubiquitin-protein ligase NEDD4-like S225R, Q96PU5” are within error of each other in abundance fitness: 0.048 ± 0.063 for the first, -0.024 ± 0.064 for the second.

“E3 ubiquitin-protein ligase NEDD4-like S225T, Q96PU5” and “E3 ubiquitin-protein ligase NEDD4-like S225V, Q96PU5” are within error of each other in abundance fitness: -0.066 ± 0.079 for the first, -0.018 ± 0.076 for the second.

“E3 ubiquitin-protein ligase NEDD4-like S225W, Q96PU5” and “E3 ubiquitin-protein ligase NEDD4-like S225Y, Q96PU5” are within error of each other in abundance fitness: -0.312 ± 0.068 for the first, -0.395 ± 0.12 for the second.

“E3 ubiquitin-protein ligase NEDD4-like S230A, Q96PU5” and “E3 ubiquitin-protein ligase NEDD4-like S230C, Q96PU5” are within error of each other in abundance fitness: -0.024 ± 0.058 for the first, -0.067 ± 0.066 for the second.

“E3 ubiquitin-protein ligase NEDD4-like S230D, Q96PU5” and “E3 ubiquitin-protein ligase NEDD4-like S230E, Q96PU5” are within error of each other in abundance fitness: -0.023 ± 0.095 for the first, -0.034 ± 0.066 for the second.

“E3 ubiquitin-protein ligase NEDD4-like S230F, Q96PU5” and “E3 ubiquitin-protein ligase NEDD4-like S230G, Q96PU5” are within error of each other in abundance fitness: -0.139 ± 0.11 for the first, -0.081 ± 0.054 for the second.

Compared with “E3 ubiquitin-protein ligase NEDD4-like S230H, Q96PU5”, “E3 ubiquitin-protein ligase NEDD4-like S230I, Q96PU5” is lower in abundance fitness: -0.002 ± 0.09 for the first, -0.274 ± 0.13 for the second.

“E3 ubiquitin-protein ligase NEDD4-like S230K, Q96PU5” and “E3 ubiquitin-protein ligase NEDD4-like S230L, Q96PU5” are within error of each other in abundance fitness: -0.186 ± 0.092 for the first, -0.29 ± 0.071 for the second.

“E3 ubiquitin-protein ligase NEDD4-like S230N, Q96PU5” and “E3 ubiquitin-protein ligase NEDD4-like S230P, Q96PU5” are within error of each other in abundance fitness: 0.108 ± 0.071 for the first, -0.027 ± 0.085 for the second.

“E3 ubiquitin-protein ligase NEDD4-like S230Q, Q96PU5” and “E3 ubiquitin-protein ligase NEDD4-like S230R, Q96PU5” are within error of each other in abundance fitness: 0.025 ± 0.077 for the first, -0.095 ± 0.066 for the second.

“E3 ubiquitin-protein ligase NEDD4-like S230T, Q96PU5” and “E3 ubiquitin-protein ligase NEDD4-like S230V, Q96PU5” are within error of each other in abundance fitness: -0.051 ± 0.067 for the first, -0.136 ± 0.059 for the second.

First: E3 ubiquitin-protein ligase NEDD4-like S230W, Q96PU5
Second: E3 ubiquitin-protein ligase NEDD4-like S230Y, Q96PU5
The abundance fitness of the first is lower: -0.496 ± 0.085 for the first, -0.204 ± 0.12 for the second.

“E3 ubiquitin-protein ligase NEDD4-like S231A, Q96PU5” and “E3 ubiquitin-protein ligase NEDD4-like S231C, Q96PU5” are within error of each other in abundance fitness: -0.099 ± 0.075 for the first, -0.142 ± 0.09 for the second.

First: E3 ubiquitin-protein ligase NEDD4-like S231D, Q96PU5
Second: E3 ubiquitin-protein ligase NEDD4-like S231E, Q96PU5
The abundance fitness of the first is lower: -0.425 ± 0.11 for the first, 0.134 ± 0.089 for the second.

First: E3 ubiquitin-protein ligase NEDD4-like S231F, Q96PU5
Second: E3 ubiquitin-protein ligase NEDD4-like S231G, Q96PU5
The abundance fitness of the first is lower: -0.275 ± 0.11 for the first, -0.049 ± 0.064 for the second.

Compared with “E3 ubiquitin-protein ligase NEDD4-like S231H, Q96PU5”, “E3 ubiquitin-protein ligase NEDD4-like S231I, Q96PU5” is higher in abundance fitness: -0.331 ± 0.13 for the first, 0.087 ± 0.12 for the second.

Going from “E3 ubiquitin-protein ligase NEDD4-like S231K, Q96PU5” to “E3 ubiquitin-protein ligase NEDD4-like S231L, Q96PU5”, the abundance fitness rises from -0.273 ± 0.15 to 0.002 ± 0.088.

“E3 ubiquitin-protein ligase NEDD4-like S231M, Q96PU5” and “E3 ubiquitin-protein ligase NEDD4-like S231N, Q96PU5” are within error of each other in abundance fitness: -0.222 ± 0.08 for the first, -0.385 ± 0.12 for the second.

Compared with “E3 ubiquitin-protein ligase NEDD4-like S231P, Q96PU5”, “E3 ubiquitin-protein ligase NEDD4-like S231Q, Q96PU5” is higher in abundance fitness: -0.008 ± 0.08 for the first, 0.242 ± 0.14 for the second.

“E3 ubiquitin-protein ligase NEDD4-like S231R, Q96PU5” and “E3 ubiquitin-protein ligase NEDD4-like S231T, Q96PU5” are within error of each other in abundance fitness: 0.002 ± 0.074 for the first, 0.139 ± 0.098 for the second.

“E3 ubiquitin-protein ligase NEDD4-like S231V, Q96PU5” and “E3 ubiquitin-protein ligase NEDD4-like S231Y, Q96PU5” are within error of each other in abundance fitness: -0.062 ± 0.067 for the first, -0.228 ± 0.11 for the second.

First: E3 ubiquitin-protein ligase NEDD4-like T209C, Q96PU5
Second: E3 ubiquitin-protein ligase NEDD4-like T209D, Q96PU5
The abundance fitness of the first is higher: -0.146 ± 0.067 for the first, -0.311 ± 0.072 for the second.

“E3 ubiquitin-protein ligase NEDD4-like T209E, Q96PU5” and “E3 ubiquitin-protein ligase NEDD4-like T209F, Q96PU5” are within error of each other in abundance fitness: -0.31 ± 0.078 for the first, -0.325 ± 0.083 for the second.

“E3 ubiquitin-protein ligase NEDD4-like T209G, Q96PU5” and “E3 ubiquitin-protein ligase NEDD4-like T209H, Q96PU5” are within error of each other in abundance fitness: -0.305 ± 0.062 for the first, -0.32 ± 0.11 for the second.

“E3 ubiquitin-protein ligase NEDD4-like T209I, Q96PU5” and “E3 ubiquitin-protein ligase NEDD4-like T209L, Q96PU5” are within error of each other in abundance fitness: -0.036 ± 0.088 for the first, -0.095 ± 0.073 for the second.

“E3 ubiquitin-protein ligase NEDD4-like T209M, Q96PU5” and “E3 ubiquitin-protein ligase NEDD4-like T209N, Q96PU5” are within error of each other in abundance fitness: -0.093 ± 0.1 for the first, -0.095 ± 0.092 for the second.

First: E3 ubiquitin-protein ligase NEDD4-like T209P, Q96PU5
Second: E3 ubiquitin-protein ligase NEDD4-like T209Q, Q96PU5
The abundance fitness of the first is higher: -0.002 ± 0.059 for the first, -0.21 ± 0.095 for the second.

Work on “E3 ubiquitin-protein ligase NEDD4-like T209R, Q96PU5” yielded an abundance fitness of -0.096 ± 0.058.

Reference: the Human Domainome abundance scans (Beltran et al. 2025)
